This note sets out measurements from patent publication US20080171037A1 (Genentech, published 2008).

This experiment deals with T1, ECD of the Apo-2L receptor, DR5 (UniProt O14763 56-210, limits assumed).
T1 construct: extracellular domain; Comparison receptor
Put plainly: co-immunoprecipitation (anti-Flag sepharose or nickel-sepharose), Western blot with nickel-conjugated HRP. As for the experimental part: The respective ligands (1 μg/ml) and receptors (1 μg/ml) were incubated for 1 hour at room temperature. The reaction mixtures were subjected to precipitation with anti-Flag antibody conjugated to sepharose beads (Kodak) (FIG. 8A, left) or nickel-sepharose (Qiagen) (FIG. 8A, right) by overnight incubation at 4° C. according to manufacturer's instructions and resolved by gel electrophoresis. The ligands were visualized by Western blot analysis with nickel-conjugated horseradish peroxidase. In FIG. 8A, molecular weight markers (kDa) are indicated on the left.
(In general: A western blot detects proteins with antibodies after separation by electrophoresis.)

B1: His-tagged soluble Apo-3 Ligand (ligand)
chain: MGHHHHHHHHHHSSGHIDDDDKHMRASLSAQEPAQEELVAEEDQDPSELNPQTEESQDPAPFLNRLVRPRRSAPKGRKTRARRAIAAHYEVHPRPGQDGAQAGVDGTVSGWEEARINSSSPLRYNRQIGEFIVTRAGLYYLYCQVHFDEGKAVYLKLDLLVDGVLALRCLEEFSATAASSLGPQLRLCQVSGLLALRPGSSLRIRTLPWAHLKAAPFLTYFGLFQVH
notes: also called histidine tagged soluble Apo-3 Ligand; DNA30879
Turning to B1, the binding result is “no binding (tested: 1 µg/ml ligand and 1 µg/ml receptor)”.
